Columns and labels:
[1] = target: T1, synthetic gamma poly-glutamate peptide of 30 D-glutamate residues
T1 chain: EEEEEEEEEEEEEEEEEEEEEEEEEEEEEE

[2] = target: T2, synthetic gamma poly-glutamate 30mer containing both D- and L-glutamate (15 D- and 15 L-residues) (not fully specified)
T2 chain: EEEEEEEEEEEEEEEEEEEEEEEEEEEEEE

[3] = target: T3, synthetic gamma poly-glutamate peptide of 30 L-glutamate residues
T3 chain: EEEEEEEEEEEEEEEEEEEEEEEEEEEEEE

B1: recombinant poly-γ-glutamate hydrolase (PghP) of bacteriophage φNIT1 (protein)
chain: MAQTDTYPNIEALENAETVGVAYNIEVKRQNPSMIYFSPHAGGIEVGTTELIYRVVELTGGSLYLFQGLLPSGNSRLHVTSTHFDEPMAVCMLSKHTDAVSFHGYKDDYNKNTLVGGLNTELRNLIVSKLNSKGIAAEVATDRFTATDPDNIVNRCASGKGVQLEISSAQRRAFFQNNDWSKANRGNVTQEFLDYAEAIKEAEAEYYG
For B1, the “hydrolysis of synthetic 30mer (digestion with purified enzyme, SDS tricine PAGE)” value (“hydrolysis of synthetic 30mer” for short) [1] was “No hydrolysis of the D-polyglutamate was seen”, the “hydrolysis of synthetic 30mer” value [2] was “complete hydrolysis of L- and 30mers containing both D- and L-was observed” and the “hydrolysis of synthetic 30mer” value [3] was “complete hydrolysis of L- and 30mers containing both D- and L-was observed”.
